Reference: patent US20100260765A1 (AstraZeneca / MedImmune, published 2010)
Where a chain is given by its changes, count along the chain named.

B1: 33D5 (antibody, V domains shown)
VH: QVQLVQSGAEVKKPGASVKVSCKASGYTFGSYDINWVRQATGQGLEWMGWMNPNSGNTGYAQKFQGRVTLTRNTSIRTVYMELSSLRSEDTAVYYCARGGYSNLGWFDPWGQGSLVTVSS
VL: DIQMTQSPSSVSVSVGDRVTITCRASQGISSWLAWYQQKPGKAPKLLIYAASSLQSGVPSRFSGSGSGTDFTLTISSLQPEDFATYYCQQANSFPFTFGPGTKVDIK
B2: 32F4 (antibody, V domains shown)
VH: QLQLQESGPGLVKPSGTLSLSCTVSGGSISSRSDYWGWIRQPPGKGLEWIGTIYYSGNTFYNPSLKSRVTISVDTSKKQFSLKLSSVTAADTAVYYCARQQLVLYYFDYWGQGTLVTVSS
VL: EIVLTQSPGTLSLSPGERATLSCRTSQSVSSSYLAWYQQKPGQAPRLLIYGASSRATGVPDRFSGSGSGTDFSLTISRLEPEDFAVYYCQQYGSSPPLTFGGGTKVEIK
B3: 33B1 (antibody, V domains shown)
VH: EVQLVESGGGLVKPGGSLRLSCAASGFTFSSYTMNWVRQAPGKGLEWVSFIDSRSSYIYYADSVKGRFTISRDNAKNSLYLQMNSLRAEDTAVYYCSKDDWFEELWGQGTLVTVSS
VL: DIQMTQSPSSLSASVGDRVTITCRASQGIRNDLGWYQQKPGKAPKRLIYATSSLQSGVPSRFSGSGSGTEFTLTISSLQPEDFATYYCLHHNSFPWTFGQGTKVEIK
B4: 33E1 (antibody, V domains shown)
VH: QVQLQESGPGLVKPSQTLSLTCTVSGGSISSGDHYWSWIRQHPGKGLEWIGHIYYSGSTDYNPSLKSRVTISVDTSKNHFSLKLNSVTAADTAVYYCARTNSSSWSDWYFDLWGRGTLVTVSS
VL: DIVMTQSPDSLAVSLGERATINCKSSQSILYSSNNKNYLAWYQRKPGQPPILLIHWASTRESGVPDRFSGSGSRTDFTLTISSLQAEDVAVYYCQQYFITPWTFGQGTKVEIK
B5: 31E11 (antibody, V domains shown)
VH: QVQLVESGGGLVKPGGSLRLSCAASGFTFSDYYMSWIRQAPGKGLEWVSYISISGSTIYYADSVKGRFTISRDNAKNSLYLQMNSLRAEDTAVYYCARDDFWSGYYFNWFDPWGQGTLVTVSS
VL: DIQMTQSPSSLSASVGDRVTITCRANQTISTFLNWYQQNPGKAPKLLIYAASSLQSGVPSRFSGSGSGTDFTLTISSLQPEDFATYYCQQTYIIPLTFGGGTKVEIK
B6: 21H6 (antibody, V domains shown)
VH: QVQLVESGGGLVKPGGSLRLSCAASGFTFSDYYMSWIRQAPGKGLEWVSYISNSGITIYYADSVKGRFTISRDNAKNSLYLQMNSLRAGDTAVYYCAREEWYSSRWYRNFDYWGQGTLVTVSS
VL: DIQMTQFSSSLSASVGDRVTITCRASQSISRYLNWYQQKPGKAPKLLIYAASSLQSGVPSRFNGSGSGTDFTLTISSLQPEDFATYYCQQSYSAPLTFGGGTKVEIK
B7: 22B8 (antibody, V domains shown)
VH: QLQLQESGPGLVKPSETLSLTCTVSGGSISSRYYYWGWVRQPPGKGLEWIGTIYYSGHTYYNPSLKTRVTISVDTSKNQFSLKLISVTAADTAVYYCATQQLVLYYFDFWGQGTLVTVSS
VL: EIVLTQSPGTLSLSPGERAALSCRASQSISSSYLAWYQQRPGQAPRLLIYGASSRATGIPDRFNGSGSGTDFTLTISRLEPEDFAVYYCQQFGSSITFGQGTRLEIK
B8: 27A3 (antibody, V domains shown)
VH: B2 VH with G16E, S21T, N58D, F60Y, K78N
VL: B2 VL with T25A, G51A, A52T, S54N, V59I, S73T, Y92H
B9: 29D4 (antibody, V domains shown)
VH: B2 VH with G16E, S21T, D34N, N58H, F60Y, T70S, K78N, A90T, V94L, D108E
VL: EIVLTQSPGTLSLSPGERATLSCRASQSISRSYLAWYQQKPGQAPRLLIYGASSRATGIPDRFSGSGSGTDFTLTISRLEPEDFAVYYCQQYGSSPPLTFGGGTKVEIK
B10: 32F4 (antibody, V domains shown)
VH: B2 VH
VL: B2 VL

The binders below were run against T1, KDR (human, UniProt P35968 20-1356) (assay: cell-based or functional assay).
T1 sequence (P35968 20-1356): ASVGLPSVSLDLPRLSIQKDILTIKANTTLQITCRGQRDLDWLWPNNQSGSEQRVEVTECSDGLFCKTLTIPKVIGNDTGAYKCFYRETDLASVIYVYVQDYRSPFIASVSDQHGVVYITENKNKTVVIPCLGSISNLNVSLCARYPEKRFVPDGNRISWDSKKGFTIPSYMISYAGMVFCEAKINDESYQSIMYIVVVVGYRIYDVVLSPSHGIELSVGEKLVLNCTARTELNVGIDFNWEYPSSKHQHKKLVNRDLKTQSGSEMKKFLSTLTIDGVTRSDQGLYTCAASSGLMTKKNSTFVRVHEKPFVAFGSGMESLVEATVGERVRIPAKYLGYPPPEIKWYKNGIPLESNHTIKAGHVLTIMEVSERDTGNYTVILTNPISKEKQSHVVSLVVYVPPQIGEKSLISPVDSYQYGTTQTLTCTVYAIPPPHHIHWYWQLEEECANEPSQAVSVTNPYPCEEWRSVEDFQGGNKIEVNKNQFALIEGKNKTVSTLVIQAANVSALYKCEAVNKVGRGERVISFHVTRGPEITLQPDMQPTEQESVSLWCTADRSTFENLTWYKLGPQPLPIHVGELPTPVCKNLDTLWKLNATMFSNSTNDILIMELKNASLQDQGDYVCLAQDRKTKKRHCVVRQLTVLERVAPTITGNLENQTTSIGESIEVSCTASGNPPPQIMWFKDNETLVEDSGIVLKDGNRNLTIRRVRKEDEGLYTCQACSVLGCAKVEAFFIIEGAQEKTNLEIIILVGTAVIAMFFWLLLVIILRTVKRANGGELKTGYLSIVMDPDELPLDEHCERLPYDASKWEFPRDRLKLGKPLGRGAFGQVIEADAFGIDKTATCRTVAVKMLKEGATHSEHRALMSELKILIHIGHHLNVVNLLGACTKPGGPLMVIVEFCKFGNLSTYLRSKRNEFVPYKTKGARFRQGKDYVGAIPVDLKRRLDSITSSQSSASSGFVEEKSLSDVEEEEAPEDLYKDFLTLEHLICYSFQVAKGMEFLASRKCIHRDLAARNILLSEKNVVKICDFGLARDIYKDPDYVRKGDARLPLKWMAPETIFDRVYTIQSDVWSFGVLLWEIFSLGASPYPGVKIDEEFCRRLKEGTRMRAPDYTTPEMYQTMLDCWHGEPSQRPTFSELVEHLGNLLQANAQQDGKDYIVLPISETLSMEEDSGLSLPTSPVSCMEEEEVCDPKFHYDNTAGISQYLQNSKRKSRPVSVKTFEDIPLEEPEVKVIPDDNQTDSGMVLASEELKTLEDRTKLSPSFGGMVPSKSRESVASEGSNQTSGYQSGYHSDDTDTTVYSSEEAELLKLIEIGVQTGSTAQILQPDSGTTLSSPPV

Point of comparison: B2, “Activity at 133 nM (% Inhibition), 1-hour Pre-incubation at 4° C., Average” value 64%. Against it:
- B1 — lower, 49%

Point of comparison: B2, “Activity at 133 nM (% Inhibition), 1-hour Pre-incubation at 4° C., N = 1” value 60%. Against it:
- B1 — lower, 39%

Point of comparison: B2, “Activity at 133 nM (% Inhibition), 1-hour Pre-incubation at 4° C., N = 2” value 68%. Against it:
- B1 — lower, 60%

Target: T1, KDR
Experiment: cell-based or functional assay
Remark: another data set of the same source

Point of comparison: B1, “Activity at 133 nM (% Inhibition), 24-hour Pre-incubation at 37° C., Average” value -15%. Against it:
- B2 — higher, 22%

Point of comparison: B1, “Activity at 133 nM (% Inhibition), 24-hour Pre-incubation at 37° C., N = 1” value 8%. Against it:
- B2 — higher, 25%

Point of comparison: B1, “Activity at 133 nM (% Inhibition), 24-hour Pre-incubation at 37° C., N = 2” value -38%. Against it:
- B2 — higher, 18%

Target: T1, KDR
Experiment: cell-based or functional assay
Remark: another data set of the same source

B1 was tested, and the “% of Max VEGF KDR pTyr Activity (at 133 nM antibody concentration), Average” value was 17%.

B1 was tested, and the “% of Max VEGF KDR pTyr Activity (at 133 nM antibody concentration), N = 1” value was 20%.

For B1, the “% of Max VEGF KDR pTyr Activity (at 133 nM antibody concentration), N = 2” value was 15%.

Target: T1, KDR
Experiment: cell-based or functional assay
Remark: another data set of the same source

Point of comparison: B1, “Activity at 133 nM Antibody Concentration (% Survival Inhibition), Average” value 5%. Against it:
- B2 — higher, 73%

Point of comparison: B1, “Activity at 133 nM Antibody Concentration (% Survival Inhibition), N = 1” value 13%. Against it:
- B2 — higher, 88%

Point of comparison: B1, “Activity at 133 nM Antibody Concentration (% Survival Inhibition), N = 2” value -2%. Against it:
- B2 — higher, 58%

Target: T1, KDR
Experiment: cell-based or functional assay
Remark: another data set of the same source

Point of comparison: B1, “% Inhibition of VEGF165-mediated 6-keto Prostaglandin F1α release at 133 nM Antibody Concentration, Average” value 36%. Against it:
- B2 — higher, 73%

Point of comparison: B2, “% Inhibition of VEGF165-mediated 6-keto Prostaglandin F1α release at 133 nM Antibody Concentration, N = 1” value 69%. Against it:
- B1 — lower, 15%

Point of comparison: B2, “% Inhibition of VEGF165-mediated 6-keto Prostaglandin F1α release at 133 nM Antibody Concentration, N = 2” value 76%. Against it:
- B1 — lower, 57%

The binders below were run against human KDR on cells (human, UniProt P35968 20-1356) (assay: cell-based or functional assay).
human KDR on cells, sequence (P35968 20-1356): as above

Point of comparison: B10, “% Inhibition (Average) of VEGF-C-mediated KDR activity, antibody 1 nM” value 43%. Against it:
- B3 — higher, 49%
- B4 — lower, 32%
- B5 — lower, 40%
- B6 — lower, 28%
- B7 — lower, 27%
- B8 — lower, 39%
- B9 — lower, 34%

Point of comparison: B9, “% Inhibition (Average) of VEGF-C-mediated KDR activity, antibody 10 nM” value 71%. Against it:
- B3 — lower, 62%
- B4 — lower, 69%
- B5 — higher, 83%
- B6 — higher, 84%
- B7 — lower, 65%
- B8 — higher, 78%
- B10 — higher, 77%

Point of comparison: B7, “% Inhibition (Average) of VEGF-C-mediated KDR activity, antibody 100 nM” value 74%. Against it:
- B3 — lower, 68%
- B4 — higher, 79%
- B5 — higher, 84%
- B6 — higher, 94%
- B8 — higher, 75%
- B9 — higher, 76%
- B10 — higher, 81%

Point of comparison: B8, “% Inhibition (N = 1) of VEGF-C-mediated KDR activity, antibody 1 nM” value 40%. Against it:
- B3 — higher, 45%
- B4 — lower, 29%
- B5 — higher, 47%
- B6 — lower, 23%
- B7 — lower, 38%
- B9 — higher, 42%
- B10 — higher, 55%

Point of comparison: B9, “% Inhibition (N = 1) of VEGF-C-mediated KDR activity, antibody 10 nM” value 71%. Against it:
- B3 — lower, 61%
- B4 — higher, 75%
- B5 — higher, 81%
- B6 — higher, 78%
- B7 — higher, 74%
- B8 — higher, 75%
- B10 — higher, 76%

Point of comparison: B5, “% Inhibition (N = 1) of VEGF-C-mediated KDR activity, antibody 100 nM” value 84%. Against it:
- B3 — lower, 64%
- B4 — lower, 83%
- B6 — higher, 93%
- B7 — lower, 71%
- B8 — lower, 73%
- B9 — lower, 74%
- B10 — lower, 75%

Point of comparison: B7, “% Inhibition (N = 2) of VEGF-C-mediated KDR activity, antibody 1 nM” value 17%. Against it:
- B3 — higher, 53%
- B4 — higher, 36%
- B5 — higher, 33%
- B6 — higher, 34%
- B8 — higher, 38%
- B9 — higher, 25%
- B10 — higher, 31%

Point of comparison: B10, “% Inhibition (N = 2) of VEGF-C-mediated KDR activity, antibody 10 nM” value 79%. Against it:
- B3 — lower, 62%
- B4 — lower, 64%
- B5 — higher, 85%
- B6 — higher, 90%
- B7 — lower, 56%
- B8 — higher, 80%
- B9 — lower, 72%

Point of comparison: B3, “% Inhibition (N = 2) of VEGF-C-mediated KDR activity, antibody 100 nM” value 73%. Against it:
- B4 — higher, 75%
- B5 — higher, 84%
- B6 — higher, 95%
- B7 — higher, 77%
- B8 — higher, 77%
- B9 — higher, 79%
- B10 — higher, 86%
